Measured values: IntAct's records for PubMed 19765080

B1: G protein-activated inward rectifier potassium channel 1 (Rattus norvegicus (Rat)), P63251 (parent)
chain: MSALRRKFGDDYQVVTTSSSGSGLQPQGPGQGPQQQLVPKKKRQRFVDKNGRCNVQHGNLGSETSRYLSDLFTTLVDLKWRWNLFIFILTYTVAWLFMASMWWVIAYTRGDLNKAHVGNYTPCVANVYNFPSAFLFFIETEATIGYGYRYITDKCPEGIILFLFQSILGSIVDAFLIGCMFIKMSQPKKRAETLMFSEHAVISMRDGKLTLMFRVGNLRNSHMVSAQIRCKLLKSRQTPEGEFLPLDQLELDVGFSTGADQLFLVSPLTICHVIDAKSPFYDLSQRSMQTEQFEVVVILEGIVETTGMTCQARTSYTEDEVLWGHRFFPVISLEEGFFKVDYSQFHATFEVPTPPYSVKEQEEMLLMSSPLIAPAITNSKERHNSVECLDGLDDISTKLPSKLQKITGREDFPKKLLRMSSTTSEKAYSLGDLPMKLQRISSVPGNSEEKLVSKTTKMLSDPMSQSVADLPPKLQKMAGGPTRMEGNLPAKLRKMNSDRFT

Legend:
Conditions in all cases: with kapca_bovin PRKACA
[1] = variants of: B1
[2] = variants of: B1; remark: listed apart in the source
[3] = variants of: B1; remark: listed apart in the source
[4] = variants of: B1; remark: listed apart in the source
[5] = variants of: B1; remark: listed apart in the source

| Variant | effect of a mutation on the interaction [1] | effect of a mutation on the interaction [2] | effect of a mutation on the interaction [3] | effect of a mutation on the interaction [4] | effect of a mutation on the interaction [5] |
| --- | --- | --- | --- | --- | --- |
| S385C | disrupting interaction | decreasing interaction |  |  |  |
| S401C |  |  | decreasing interaction | disrupting interaction |  |
| T407C |  |  |  | disrupting interaction | decreasing interaction |
